Publication doi:10.1101/2022.02.08.479556
pKd: −log10 of the molar value.

Target: SARS-CoV-2 nucleocapsid protein N:G215C mutant (SARS-CoV-2) (UniProt P0DTC9)
Assay: AUC

## SARS-CoV-2 nucleocapsid protein N:G215C mutant (from UniProt P0DTC9 1-419) (natural protein)
  pKd: 5.48
